Target: C-terminal extension of Bacillus cereus hemolysin II (HlyIICTD) (Bacillus cereus)
Experiment: not stated; HlyIICTD in the presence of 4M urea

C-terminal extension of Bacillus cereus hemolysin II (HlyIICTD) (domain or fragment)
stoichiometry N: 3

Source: article PMC8069557
